According to article PMC8516981:

How the values were obtained:
[1] = target: α-synuclein (αS) fibrils (human) (UniProt P37840); test: microfluidic diffusional sizing; in solution; DnaJB1 or Apg2 alone with αS fibrils (concentrations as monomer equivalents); 50 mM HEPES-KOH pH 7.5, 50 mM KCl, 5 mM MgCl2, 2 mM DTT
[2] = target: α-synuclein (αS) fibrils (human) (UniProt P37840); test: microfluidic diffusional sizing; in solution; labelled Hsc70 with αS fibrils (concentrations as monomer equivalents); 50 mM HEPES-KOH pH 7.5, 50 mM KCl, 5 mM MgCl2, 2 mM DTT; in the presence of ATP and DnaJB1
[3] = target: α-synuclein (αS) fibrils (human) (UniProt P37840); test: microfluidic diffusional sizing; in solution; labelled Hsc70 with αS fibrils (concentrations as monomer equivalents); 50 mM HEPES-KOH pH 7.5, 50 mM KCl, 5 mM MgCl2, 2 mM DTT; in the presence of ATP

Chain of heat shock cognate Hsc70 (HSPA8) (P11142 whole entry): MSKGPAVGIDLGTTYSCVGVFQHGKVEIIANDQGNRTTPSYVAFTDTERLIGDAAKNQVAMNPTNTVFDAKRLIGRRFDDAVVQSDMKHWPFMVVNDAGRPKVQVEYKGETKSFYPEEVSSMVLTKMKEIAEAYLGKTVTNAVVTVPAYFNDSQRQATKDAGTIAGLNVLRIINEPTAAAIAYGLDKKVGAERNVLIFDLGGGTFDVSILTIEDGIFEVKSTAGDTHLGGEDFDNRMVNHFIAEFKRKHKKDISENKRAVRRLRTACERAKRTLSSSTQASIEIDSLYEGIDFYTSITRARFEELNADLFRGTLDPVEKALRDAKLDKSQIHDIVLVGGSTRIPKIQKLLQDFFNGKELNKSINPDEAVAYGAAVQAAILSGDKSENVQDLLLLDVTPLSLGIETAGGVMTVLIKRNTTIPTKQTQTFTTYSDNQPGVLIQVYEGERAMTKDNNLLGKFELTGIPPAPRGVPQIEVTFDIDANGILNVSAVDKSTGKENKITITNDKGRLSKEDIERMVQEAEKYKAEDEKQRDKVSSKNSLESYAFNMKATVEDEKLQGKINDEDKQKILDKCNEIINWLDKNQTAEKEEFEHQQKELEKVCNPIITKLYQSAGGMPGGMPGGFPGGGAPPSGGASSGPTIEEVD
Chain of DnaJB1 (Hsp40 class B J-protein) (P25685 whole entry): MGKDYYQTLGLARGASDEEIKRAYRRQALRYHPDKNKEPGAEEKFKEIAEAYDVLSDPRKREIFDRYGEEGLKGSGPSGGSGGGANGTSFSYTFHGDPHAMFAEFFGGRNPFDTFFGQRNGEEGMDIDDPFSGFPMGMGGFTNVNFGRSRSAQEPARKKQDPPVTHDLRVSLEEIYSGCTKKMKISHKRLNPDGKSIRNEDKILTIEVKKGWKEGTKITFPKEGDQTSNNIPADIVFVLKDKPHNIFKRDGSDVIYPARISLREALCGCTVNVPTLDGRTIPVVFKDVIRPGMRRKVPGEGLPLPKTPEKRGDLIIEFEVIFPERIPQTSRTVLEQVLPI

Kd [1] [nM] | Kd [2] [nM] | Kd [3] [nM] | stoichiometry N (αS monomer units per Hsc70 molecule) [3] | Substance
246 | – | – | – | DnaJB1 (Hsp40 class B J-protein) (from UniProt P25685 1-340) (natural protein)
– | 47.5 | 139 | 5.3 | heat shock cognate Hsc70 (HSPA8) (from UniProt P11142 1-646) (natural protein)
